Assay results from article PMC2185538, “Purification of the full-length Xenopus interphotoreceptor retinoid binding protein and growth of diffraction-quality crystals” (Molecular Vision, 2007).

Target: the molecule itself
Assay: SEC; Sephacryl S-300HR 2.6 x 100 cm, 25 mM Tris-HCl pH 7.5 at 4 °C, 50 mM NaCl, 1 mM DTT; dimer between elution volumes 212 and 250 ml

B1: recombinant full-length four-module Xenopus interphotoreceptor retinoid-binding protein (natural protein)
chain: not shown
notes: begins FQPSL; also called xIRBP; Xenopus IRBP; source: E. coli Top10, thioredoxin fusion cleaved with enterokinase, purified (HisTrap twice, Sephacryl S-300HR); not shown: thioredoxin with His-patch, N-terminal, cleaved
  stoichiometry N: 2
